Test results published in patent US20180057553A1, “CONJUGATE AND USE THEREOF” (The University of Tokyo, priority 2015, published 2018).
Residue numbers refer to the chain shown, from its start. Names and notes keep the numbering of the source.

What was measured:
[1] = Binding of intelectin to beads having a diol group (SDS-PAGE, Examples 1 and 10); conditions: 18 hours at 25 deg C; eluted with 15% glycerol; compared with polystyrene or hydroxy beads
Description: Beads having a diol group on the surface and beads not having a diol group on the surface were prepared. Beads obtained by conjugating 3-amino-1-propanediol bound to the surface of polystyrene beads via an amino group (diol beads), and beads obtained by alkaline hydrolyzing the epoxy group of Sepharose beads with 1,4-bis(2,3-epoxypropyl)butane introduced (epoxy-activated Sepharose 6B (GE Healthcare Biosciences)) (diol Sepharose beads) were used as the beads having a diol group on the surface. Polystyrene beads and beads obtained by conjugating 3-amino-1-propanol to polystyrene beads (hydroxy beads) were used as the beads not having a diol group on the surface.
Each kind of beads were added to 500 microliters of a medium containing intelectin or a medium not containing intelectin, and were stirred for 18 hours at 25 deg C. Recombinant human intelectin-1 was used as intelectin. Subsequently, the beads were collected by centrifugation and washed once with buffer, and the samples was eluted with buffer containing 15% glycerol. Samples were separated by SDS polyacrylamide gel electrophoresis (SDS-PAGE), and proteins were stained using Coomassie Brilliant Blue.
Beads having a diol group on the surface and beads not having a diol group on the surface were prepared. Diol beads, diol Sepharose brads, and hydroxy beads, that were used in Example 1, were used as the beads.
First, beads were added to 5 mL of a medium containing recombinant mouse intelectin-1 or 1 mL of a medium containing C31, 48S mutant of human intelectin-1, and the samples were stirred for 18 hours at 25 deg C.
Subsequently, the beads were collected by centrifugation and washed once with buffer, and the samples were eluted with buffer containing 15% glycerol. The samples were then separated by SDS-polyacrylamide gel electrophoresis (SDS-PAGE), and proteins were stained with Coomassie Brilliant Blue.

[2] = Adsorption of intelectin in human serum to diol modified silica gel column (Example 14); format: binding
Description: 40 microliters of 50% fresh human serum diluted with 0.1% Tween 20-150 mM NaCl—50 mM phosphate buffer (pH 7.3) added with or not added with 10 mM EDTA was added to a gel filtration chromatography column (TSKgel G3000 SWXL Tosoh Corporation) utilizing diol-modified silica gel as the carrier, and gel filtration was performed using 0.1% Tween 20—150 mM NaCl—50 mM phosphate buffer (pH 7.3) as solvent. Subsequently, the intelectin concentration in the elution fraction was measured using ELISA.

B1: intelectin: a kind of lectin; amino acid sequence of human intelectin-1 is SEQ ID NO: 1; wild type forms a trimer (protein, listed as Homo sapiens)
chain: MNQLSFLLFLIATTRGWSTDEANTYFKEWTCSSSPSLPRSCKEIKDECPSAFDGLYFLRTENGVIYQTFCDMTSGGGGWTLVASVHENDMRGKCTVGDRWSSQQGSKADYPEGDGNWANYNTFGSAEAATSDDYKNPGYYDIQAKDLGIWHVPNKSPMQHWRNSSLLRYRTDTGFLQTLGHNLFGIYQKYPVKYGEGKCWTDNGPVIPVVYDFGDAQKTASYYSPYGQREFTAGFVQFRVFNNERAANALCAGMRVTGCNTEHHCIGGGGYFPEASPQQCGDFSGFDWSGYGTHVGYSSSREITEAAVLLFYR
modifications: human intelectin-1
notes: a kind of lectin; wild type forms a trimer
binding to beads having a diol group (SDS-PAGE) [1]: selectively bind to diol beads and diol Sepharose beads
binding of serum intelectin to the column ([2]; human serum added with 10 mM EDTA): did not bind to the column
binding of serum intelectin to the column ([2]; human serum not added with EDTA): adsorbed to the column

B2: mouse intelectin-1: produced as a monomer; 51 amino acid residues different from human intelectin-1; SEQ ID NO: 7 (protein, listed as Mus musculus)
chain: MTQLGFLLFIMVATRGCSAAEENLDTNRWGNSFFSSLPRSCKEIKQEHTKAQDGLYFLRTKNGVIYQTFCDMTTAGGGWTLVASVHENNMRGKCTVGDRWSSQQGNRADYPEGDGNWANYNTFGSAEAATSDDYKNPGYFDIQAENLGIWHVPNKSPLHNWRKSSLLRYRTFTGFLQHLGHNLFGLYKKYPVKYGEGKCWTDNGPALPVVYDFGDARKTASYYSPSGQREFTAGYVQFRVFNNERAASALCAGVRVTGCNTEHHCIGGGGFFPEGNPVQCGDFASFDWDGYGTHNGYSSSRKITEAAVLLFYR
modifications: mouse intelectin-1
binding to beads having a diol group (SDS-PAGE) [1]: specifically bind to diol beads and diol Sepharose beads

B3: C31, 48S mutant of human intelectin-1: cysteine residues at position 31 and 48 substituted with serine; produced as a monomer; SEQ ID NO: 9 (protein, listed as Homo sapiens)
chain: B1 chain with C31S, C48S
modifications: human intelectin-1 C31S, C48S variant
binding to beads having a diol group (SDS-PAGE) [1]: specifically bind to diol beads and diol Sepharose beads
